According to article PMC12325614 (Nature Communications, 2025):

B1: TE9 whole antibody in human IgG1 format (antibody, V domains shown)
VH: QVQLQQSGAALVKPGTSVKLSCKASGYTFTSYWMHWVKQRPGQGLEWIGMIHPKSGSVDYNEKFTNKATLTGDKSSGTAYMQLSSLTSEDSAVYYCARGGYGSPFDYWGQGTTVTVSS
VL: ENVLTQSPAIMSASPGEKVTMTCSASSSVSYMYWYQQKPGSSPRLLIYRTSNLASGVPARFSGSGSGTSYSLTISSMEAEDAATYYCQQWSSNPPTFGGGTKLEIK
B2: MGA271 whole antibody in human IgG1 format (antibody, V domains shown)
VH: EVQLVESGGGLVQPGGSLRLSCAASGFTFSSFGMHWVRQAPGKGLEWVAYISSDSSAIYYADTVKGRFTISRDNAKNSLYLQMNSLRDEDTAVYYCGRGRENIYYGSRLDYWGQGTTVTVSS
VL: DIQLTQSPSFLSASVGDRVTITCKASQNVDTNVAWYQQKPGKAPKALIYSASYRYSGVPSRFSGSGSGTDFTLTISSLQPEDFATYYCQQYNNYPFTFGQGTKLEIK

Target: 4-Ig human B7H3 (analyte of the Biacore SPR) (Homo sapiens, UniProt Q5ZPR3)
Sequence (Q5ZPR3 29-466): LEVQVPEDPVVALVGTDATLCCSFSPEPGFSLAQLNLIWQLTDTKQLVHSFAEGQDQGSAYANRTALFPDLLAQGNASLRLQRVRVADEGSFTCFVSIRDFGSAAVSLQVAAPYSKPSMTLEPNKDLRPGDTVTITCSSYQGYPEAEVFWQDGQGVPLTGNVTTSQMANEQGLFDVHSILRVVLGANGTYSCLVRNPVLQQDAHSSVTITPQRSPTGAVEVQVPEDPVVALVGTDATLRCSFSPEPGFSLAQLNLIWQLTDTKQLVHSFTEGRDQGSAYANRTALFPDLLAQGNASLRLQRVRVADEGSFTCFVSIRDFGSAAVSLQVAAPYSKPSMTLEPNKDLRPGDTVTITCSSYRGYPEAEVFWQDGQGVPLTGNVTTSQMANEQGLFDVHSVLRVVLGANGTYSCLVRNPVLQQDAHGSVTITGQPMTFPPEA
Assay: SPR

Binder | Kd [nM]
B1 | 0.44
B2 | 1.61
